The supplement of paper PMC9170038

Test system: MS2 coat protein
Assay: apparent KD of MS2 coat protein; designed switch direction (-1 OFF switch, 1 ON switch): -1; higher = weaker reporter binding
Procedure, shortened: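 SNAP-549-labelled MS2 coat protein was titrated, doubling from 0.7 or 1.5 nM to 3 µM, over designed RNA switches transcribed on Illumina chips by stalled E. coli RNA polymerase. Runs were done without input, with 200 uM small-molecule ligand, or with an oligonucleotide input. Apparent KD is the per-design median over clusters of curve-fitted normalised fluorescence.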

[1] = Eterna round: R95, input ligand: microRNA oligo, concentration not stated
[2] = input ligand: microRNA oligo, concentration not stated
[3] = Eterna round: R95, input ligand: FMN 200 uM
[4] = Eterna round: R95, input ligand: none

## GGUGCGUUUGUGAGGAUAUGCUGGUCCUUGGUUCGGCAGAAGGCACAUGAGGAUCACCCAUGUGGUGUCGCACC [salish99_Bmod_Ex4_049] (puzzle: Brourd's mod of Exclusion 4)
[1]
  apparent KD of MS2 coat protein: 65.9 nM

## AGCUUUUUGCUCGUCUUAUACAUGAGGAUCACCCAUGUAUUGGACCACAUCGAUAGAUGUGGACCAAGAAGCAUGGU [Omdei Mir OFFv1 C3] (Eterna round: R97, puzzle: Sensor, turn-off variant 1)
Input ligand: FMN 200 uM
  apparent KD of MS2 coat protein: 46.8 nM
Input ligand: none
  apparent KD of MS2 coat protein: 45.2 nM

## UUAAAUCAUGUAGGAUAUGCGUGGCGAAGCUAUGCAGAAGGACAUGAGGAUCACCCAUGUGCUAGCGUCUGCGUACAGAUGCAA [JL ENG1 1.11] (Eterna round: R96, puzzle: Exclusion NG 1)
Input ligand: FMN 200 uM
  apparent KD of MS2 coat protein: 189 nM
[2]
  apparent KD of MS2 coat protein: 65.2 nM
Input ligand: none
  apparent KD of MS2 coat protein: 76.7 nM

## AUGGUACAUGAGGAUCACCCAUGUUAGGAUAUCGCGUGUUCUAAAACUAAGAGACACACGAGAAGGGACGACAU (puzzle: Exclusion 1)
[3]
  apparent KD of MS2 coat protein: 51.5 nM
[1]
  apparent KD of MS2 coat protein: 67.8 nM
[4]
  apparent KD of MS2 coat protein: 71.4 nM

## AAGGGUGCUUUCAGAACGACAUGAGGAUCACCCAUGUAGACUGAGGAUAUCUACUCCUAAGGACGGGAGAAGGCAGUGUAAUGC [Ex NG3 #65] (Eterna round: R96, puzzle: Exclusion NG 3)
Input ligand: FMN 200 uM
  apparent KD of MS2 coat protein: 19.5 nM
[2]
  apparent KD of MS2 coat protein: 14.2 nM
Input ligand: none
  apparent KD of MS2 coat protein: 21.7 nM

## AAUAAUCGGGCCUUCCUAUUACAUGAGGAUCACCCAUGUCUCGAGGAUAUACCGACGCACGGUCCGUAGAAGGCGAGACCACAC [Esusbied] (Eterna round: R96, puzzle: Exclusion NG 3)
Input ligand: FMN 200 uM
  apparent KD of MS2 coat protein: 141 nM
[2]
  apparent KD of MS2 coat protein: 14.5 nM
Input ligand: none
  apparent KD of MS2 coat protein: 24.7 nM

## UGGUAGUGAGGAUAUCCAAUAUAUGACAUGAGGAUCACCCAUGUUUCCACUCGUACCUCCGGAGAAGGCACAUGGU [Ex5 #54] (Eterna round: R97, puzzle: Exclusion 5)
Input ligand: FMN 200 uM
  apparent KD of MS2 coat protein: 67.6 nM
Input ligand: none
  apparent KD of MS2 coat protein: 61.9 nM

## CUAGAUCUUCGGAUCUAGUACAUGAGGAUCACCCAUGUGACGAGUUUAUGGGUGAACAAGCUUUUUGCUCGUCUUAU [Sensor v3 - Turn-off variant 1 - 7] (puzzle: Sensor v3, turn-off variant 1)
[3]
  apparent KD of MS2 coat protein: 71.4 nM
[1]
  apparent KD of MS2 coat protein: 16.5 nM
[4]
  apparent KD of MS2 coat protein: 84.8 nM

## CGAUAGAUAGGAUAUACAUGAGGAUCACCCAUGUGAACGGGUAGAUUUGUCAACUGAAGUAGAAGGAUCGUCGC [Eternabot (L2) Solution 64] (Eterna round: R97, puzzle: Exclusion 3)
Input ligand: FMN 200 uM
  apparent KD of MS2 coat protein: 132 nM
Input ligand: none
  apparent KD of MS2 coat protein: 761 nM

## GUCGCUUUUUGUUUGUUUUACAUGAGGAUCACCCAUGUACGUUGGUUACAAUAAAGUUCCGUGGCGGAUCAAUCUGA [Eternabot (L1) Solution 12] (Eterna round: R97, puzzle: Sensor, turn-off variant 1)
Input ligand: FMN 200 uM
  apparent KD of MS2 coat protein: 24.9 nM
Input ligand: none
  apparent KD of MS2 coat protein: 28.2 nM

## AUAAUACAUGUAGGAUAUCUGCACGUUUAGUGCAGAGAAGGACAUGAGGAUCACCCAUGUAAUUAAGAUCAAUUAUUAAAUUAU [ENG1/3-D2] (Eterna round: R96, puzzle: Exclusion NG 1)
Input ligand: FMN 200 uM
  apparent KD of MS2 coat protein: 293 nM
[2]
  apparent KD of MS2 coat protein: 54.7 nM
Input ligand: none
  apparent KD of MS2 coat protein: 66.2 nM

## GGUGAGCUAGGAUAUGCUUUGGGCUCGCUUUCCUUCGAUUUACUUGAGGAUCACCCAAGUAGAAGGAGCUUGCC [salish99_ex2_r4_035] (Eterna round: R97, puzzle: Exclusion 2)
Input ligand: FMN 200 uM
  apparent KD of MS2 coat protein: 13.5 nM
Input ligand: none
  apparent KD of MS2 coat protein: 12.9 nM

## UGGUCCCUGAAACAUGAGGAUCACCCAUGUAUAAUGAGGACAAAGGAUAUAUCCCACCAGGUAGGGUAGAAGGUUGAACUCUAC [Eternabot solution 42] (Eterna round: R96, puzzle: Exclusion NG 3)
Input ligand: FMN 200 uM
  apparent KD of MS2 coat protein: 13.1 nM
[2]
  apparent KD of MS2 coat protein: 10.6 nM
Input ligand: none
  apparent KD of MS2 coat protein: 16.2 nM

## AAUAACAAGCCGAUCCUUCACAUGAGGAUCACCCAUGUGCUCGUCUUGUAAAGUACUAUCACGAAAGUGAUAGUACA (Eterna round: R97, puzzle: Sensor, turn-off variant 1)
Input ligand: FMN 200 uM
  apparent KD of MS2 coat protein: 22.6 nM
Input ligand: none
  apparent KD of MS2 coat protein: 19.9 nM

## UUUUAACAUGAGGAUCACCCAUGUGAGGAUAUCGAAAUUUAUAUUAAUAUUAUUAAAACGAGAAGGCACAUUUU [JMF 35] (puzzle: Exclusion 1)
[1]
  apparent KD of MS2 coat protein: 62.9 nM

## UUGUGCACGCUGCGAUCCUACAUGAGGAUCACCCAUGUGGUCUGGUGGCGUGGGUCACCGGACUUGGCUCGUCUUGG [salish99_S_TOV1_R5_076] (Eterna round: R97, puzzle: Sensor, turn-off variant 1)
Input ligand: FMN 200 uM
  apparent KD of MS2 coat protein: 126 nM
Input ligand: none
  apparent KD of MS2 coat protein: 138 nM

## UAUCUACAUGUAGGAUAUGCGUGGCGAAGCUAUGCAGAAGGACAUGAGGAUCACCCAUGUUUUAGCGUCUGCGUACAGAUGCGU [JL ENG1 1.48] (Eterna round: R96, puzzle: Exclusion NG 1)
Input ligand: FMN 200 uM
  apparent KD of MS2 coat protein: 149 nM
[2]
  apparent KD of MS2 coat protein: 16.4 nM
Input ligand: none
  apparent KD of MS2 coat protein: 23.2 nM

## GUAGAGUCAGGAUAUACAAGAUCGAAAGAUCGGCGAUCCAUACAUGAGGAUCACCCAUGUAGAAGGGACUCUAC [Eli x2 4.003] (Eterna round: R97, puzzle: Exclusion 2)
Input ligand: FMN 200 uM
  apparent KD of MS2 coat protein: 560 nM
Input ligand: none
  apparent KD of MS2 coat protein: 33.4 nM

## AGUAACUAUCACGAAAGUGAUAGUUACGCAAGCAGUGAAACAUGAGGAUCACCCAUGUCCUCAUUUGCUCGUCUUAU [Sensor 3 - 26] (puzzle: Sensor v3, turn-off variant 2)
[3]
  apparent KD of MS2 coat protein: 53.9 nM
[1]
  apparent KD of MS2 coat protein: 435 nM
[4]
  apparent KD of MS2 coat protein: 48.6 nM

## AUCAGCUCGUCAGGAUAUAUUAACAUGAGGAUCACCCAUGUAAGAUCAGGCUUCGGCCAAUGUUAAUAGAAGGGACGAGCUGAU [ENG2/12-B2] (Eterna round: R96, puzzle: Exclusion NG 2)
Input ligand: FMN 200 uM
  apparent KD of MS2 coat protein: 710 nM
[2]
  apparent KD of MS2 coat protein: 29 nM
Input ligand: none
  apparent KD of MS2 coat protein: 133 nM

## CCUCGACAUGAGGAUCACCCAUGUCAGGAUAUUGUGUUUCGGGUUUUUUACCUUUAGGCAAGAAGGGAUGUGUG [LRO-Excl1-16] (puzzle: Exclusion 1)
[1]
  apparent KD of MS2 coat protein: 15.8 nM

## GAUUAUGCGAGCUUUAGGGACAUGAGGAUCACCCAUGUUCGUCUUAUUGGUCUGAAUGCACUAACAUACCUAAAUCU [JMF 24] (puzzle: Sensor v3, turn-off variant 1)
[3]
  apparent KD of MS2 coat protein: 26.2 nM
[1]
  apparent KD of MS2 coat protein: 37 nM
[4]
  apparent KD of MS2 coat protein: 24.8 nM

## CUUUUGUGAGGAUAUUAGUAGUAAAUAAUUAAAAUUACUACUGAGAAGGCACAUGAGGAUCACCCAUGUUCCUC [salish99_ex4_r3_056] (puzzle: Exclusion 4)
[1]
  apparent KD of MS2 coat protein: 35.2 nM

## UUUAAUUUUUUUUUUUUACAAGCUUUUUGCUCGUCUUAUACAUGAGGAUCACCCAUGUGAAUGGAAGAUAAAUUAUC [JMF 8] (puzzle: Sensor v3, turn-off variant 2)
[3]
  apparent KD of MS2 coat protein: 17.8 nM
[1]
  apparent KD of MS2 coat protein: 16.3 nM
[4]
  apparent KD of MS2 coat protein: 18.6 nM

## GGCAGACAUGAGGAUCACCCAUGUCAGGAUAUGCGGCGAAGUACAGUUAGUGCAUUUGGUAGAAGGGACAAGGA [Eternabot (L1) Solution 100] (Eterna round: R97, puzzle: Exclusion 1)
Input ligand: FMN 200 uM
  apparent KD of MS2 coat protein: 29.8 nM
Input ligand: none
  apparent KD of MS2 coat protein: 32.5 nM

## AAAAAAAAGAUAGGAUAUUAGAAAAAAAUGGUGAUAGAGACAUGAGGAUCACCCAUGUAAAAAAAUAAGAAGGGUCAAAAAAAA [AK ExNG2-V2-5] (Eterna round: R96, puzzle: Exclusion NG 2)
Input ligand: FMN 200 uM
  apparent KD of MS2 coat protein: 322 nM
[2]
  apparent KD of MS2 coat protein: 298 nM
Input ligand: none
  apparent KD of MS2 coat protein: 362 nM

## UGCAGACGAGGAUAUAGAUUUAAGUACAUGAGGAUCACCCAUGUACACAUGUAUUUAGAUUUAGAAGGCGUCUGCU [E5/17-A4] (Eterna round: R97, puzzle: Exclusion 5)
Input ligand: FMN 200 uM
  apparent KD of MS2 coat protein: 987 nM
Input ligand: none
  apparent KD of MS2 coat protein: 1210 nM

## UGAAGGUCAGGAUAUGAGUCUAUCUGACGCAGACAUAGACAUUAGAAGGGACAUGAGGAUCACCCAUGUGGGAC [Eternabot (L1) Solution 29] (Eterna round: R97, puzzle: Exclusion 4)
Input ligand: FMN 200 uM
  apparent KD of MS2 coat protein: 106 nM
Input ligand: none
  apparent KD of MS2 coat protein: 84.8 nM

## GUUCACGUAGGAUAUACGGUUGGUGUGCGCGAAGGCCUUUGACAUGAGGAUCACCCAUGUAGAAGGACGAUGAA [EX2 C.24] (Eterna round: R97, puzzle: Exclusion 2)
Input ligand: FMN 200 uM
  apparent KD of MS2 coat protein: 32.1 nM
Input ligand: none
  apparent KD of MS2 coat protein: 31 nM

## UUGAUGUGAGGAUAUAUAUGGUUGUUUUUUUAUUUUUUAUUACUUGAGGAUCACCCAAGUAGAAGGCGCUACGU [JR_Ex2_Sub068] (Eterna round: R97, puzzle: Exclusion 2)
Input ligand: FMN 200 uM
  apparent KD of MS2 coat protein: 25.5 nM
Input ligand: none
  apparent KD of MS2 coat protein: 29.5 nM

## GGUCGACAUGAGGAUCACCCAUGUCAGGAUAUCGUCACUGGAGCCUCGGCUCCAGUGACGAGAAGGGAUAUGAU [E1/17-A2] (Eterna round: R97, puzzle: Exclusion 1)
Input ligand: FMN 200 uM
  apparent KD of MS2 coat protein: 41.9 nM
Input ligand: none
  apparent KD of MS2 coat protein: 43.9 nM

## AAAGGCUCAGGAUAUGCCCAGGAAGACAUGAGGAUCACCCAUGUACUACGGGUGUCAUACGCAGAAGGGAGAUAGA [EX5 C.28] (Eterna round: R97, puzzle: Exclusion 5)
Input ligand: FMN 200 uM
  apparent KD of MS2 coat protein: 25.1 nM
Input ligand: none
  apparent KD of MS2 coat protein: 28.7 nM

## CAUGUUGACAGAGGAUAUGCAAUGUGAUUUAGGGUAGAAGGCUGAGACAUGAGGAUCACCCAUGUGGGUGCGUUCUAGCGACAA [Atmala] (Eterna round: R96, puzzle: Exclusion NG 1)
Input ligand: FMN 200 uM
  apparent KD of MS2 coat protein: 150 nM
[2]
  apparent KD of MS2 coat protein: 19.4 nM
Input ligand: none
  apparent KD of MS2 coat protein: 34 nM

## CGGCCGCAAGUCAGGAUAUGGACCUGCUUGGAGGACCAGAAGGGACAUGAGGAUCACCCAUGUGAUGAAAUAAA [BmEX4 A.24] (Eterna round: R97, puzzle: Brourd's mod of Exclusion 4)
Input ligand: FMN 200 uM
  apparent KD of MS2 coat protein: 37.8 nM
Input ligand: none
  apparent KD of MS2 coat protein: 28.3 nM
